Where a chain is given by its changes, count along the chain named. Names may count otherwise.
B1: (A14E, A21G, A22(GQAP)24, A118G, A119Q, A120A, A121K^, A122P, B29R, desB30 human insulin)/(227A, 234A, 235K, 297E, 315Q, 384Q, des447 hIgG4-Fc(228-447)) … (other)
chain 1: GIVEQCCTSICSLEQLENYCGGQAPGQAPGQAPGQAPGQAPGQAPGQAPGQAPGQAPGQAPGQAPGQAPGQAPGQAPGQAPGQAPGQAPGQAPGQAPGQAPGQAPGQAPGQAPGQAPGQAKP
chain 2: FVNQHLCGSHLVEALYLVCGERGFFYTPR
chain 3: ASCPAPEAKGGPSVFLFPPKPKDTLMISRTPEVTCVVVDVSQEDPEVQFNWYVDGVEVHNAKTKPREEQFESTYRVVSVLTVLHQDWLQGKEYKCKVSNKGLPSSIEKTISKAKGQPREPQVYTLPPSQEEMTKNQVSLTCLVKGFYPSDIAVEWESQGQPENNYKTTPPVLDSDGSFFLYSRLTVDKSRWQEGNVFSCSVMHEALHNHYTQKSLSLSLG
modifications: Cys229 (EU numbering) sulphur bound to an acetyl arm of the linker; A121K N(eps) acylated by the trivalent linker 3,5-bis[(2-acetyl)amino]benzoyl
notes: also called Ex 5.29
B2: A14E, A21G, A22(GQAPGQAPGQEP)6-GQAP, A98K^, A99P, B3Q, B25H, B29R, desB30 human insulin/(227A, 234A, 235K, 297E, 315Q, 384Q, des447 hIgG4-Fc(228-447)) … (other)
chain 1: GIVEQCCTSICSLEQLENYCGGQAPGQAPGQEPGQAPGQAPGQEPGQAPGQAPGQEPGQAPGQAPGQEPGQAPGQAPGQEPGQAPGQAPGQEPGQAPKP
chain 2: FVQQHLCGSHLVEALYLVCGERGFHYTPR
chain 3: B1 chain 3
modifications: Cys229 (EU numbering) sulphur bound to an acetyl arm of the linker; A98K N(eps) acylated by the trivalent linker 4-[bis[2-[(2-acetyl)amino]ethyl]amino]-4-oxo-butanoyl
notes: also called Ex 5.13
B3: A14E, A21G, A22(GQEP)12, A70K^, A71P, B25H, B29R, desB30 human insulin/(227A, 234A, 235K, 297E, 315Q, 384Q, des447 hIgG4-Fc(228-447)) … (other)
chain 1: GIVEQCCTSICSLEQLENYCGGQEPGQEPGQEPGQEPGQEPGQEPGQEPGQEPGQEPGQEPGQEPGQEPKP
chain 2: FVNQHLCGSHLVEALYLVCGERGFHYTPR
chain 3: B1 chain 3
modifications: Cys229 (EU numbering) sulphur bound to an acetyl arm of the linker; A70K N(eps) acylated by the trivalent linker 4-[bis[2-[(2-acetyl)amino]ethyl]amino]-4-oxo-butanoyl
notes: also called Ex 5.17
B4: (A14A, A21G, A22(GQAP)18, A94G, A95Q, A96A, A97K^, A98P, B29R, desB30 human insulin)/(227A, 234A, 235K, 297E, 315Q, 384Q, des447 hIgG4-Fc(228-447)) … (other)
chain 1: GIVEQCCTSICSLAQLENYCGGQAPGQAPGQAPGQAPGQAPGQAPGQAPGQAPGQAPGQAPGQAPGQAPGQAPGQAPGQAPGQAPGQAPGQAPGQAKP
chain 2: FVNQHLCGSHLVEALYLVCGERGFFYTPR
chain 3: B1 chain 3
modifications: Cys229 (EU numbering) sulphur bound to an acetyl arm of the linker; A97K N(eps) acylated by the trivalent linker 4-[bis[2-[(2-acetyl)amino]ethyl]amino]-4-oxo-butanoyl
notes: also called Ex 5.25
B5: A14E, A21G, A22(GQAPGQAPGQEP)6-GQAP, A98K^, A99P, B29R, desB30 human insulin/(227A, 234A, 235K, 297E, 315Q, 384Q, des447 hIgG4-Fc(228-447)) … (other)
chain 1: B2 chain 1
chain 2: FVNQHLCGSHLVEALYLVCGERGFFYTPR
chain 3: B1 chain 3
modifications: Cys229 (EU numbering) sulphur bound to an acetyl arm of the linker; A98K N(eps) acylated by the trivalent linker 4-[bis[2-[(2-acetyl)amino]ethyl]amino]-4-oxo-butanoyl
B6: A14E, A21Q, A22(G)18, A40K^, B25H, B29R, desB30 human insulin/(227A, 234A, 235K hIgG4-Fc(228-447)) 4-[bis[2-[(2-acetyl)amino]ethyl]amino]-4-oxo-butanoyl … (other)
chain 1: GIVEQCCTSICSLEQLENYCQGGGGGGGGGGGGGGGGGGK
chain 2: FVNQHLCGSHLVEALYLVCGERGFHYTPR
chain 3: ASCPAPEAKGGPSVFLFPPKPKDTLMISRTPEVTCVVVDVSQEDPEVQFNWYVDGVEVHNAKTKPREEQFNSTYRVVSVLTVLHQDWLNGKEYKCKVSNKGLPSSIEKTISKAKGQPREPQVYTLPPSQEEMTKNQVSLTCLVKGFYPSDIAVEWESNGQPENNYKTTPPVLDSDGSFFLYSRLTVDKSRWQEGNVFSCSVMHEALHNHYTQKSLSLSLGK
modifications: Cys229 (EU numbering) sulphur bound to an acetyl arm of the linker; A40K N(eps) acylated by the trivalent linker 4-[bis[2-[(2-acetyl)amino]ethyl]amino]-4-oxo-butanoyl
notes: also called Ex 5.21
B7: A14E, A21G, A22(GQAPGQAPGQEP)6-GQAP, A98K^, A99P, B3Q, B25H, B29R, desB30 human insulin/(227A, 234A, 235K hIgG4-Fc(228-447)) … (other)
chain 1: B2 chain 1
chain 2: FVQQHLCGSHLVEALYLVCGERGFHYTPR
chain 3: B6 chain 3
modifications: Cys229 (EU numbering) sulphur bound to an acetyl arm of the linker; A98K N(eps) acylated by the trivalent linker 4-[bis[2-[(2-acetyl)amino]ethyl]amino]-4-oxo-butanoyl
notes: also called Ex 5.5
B8: A14E, A21G, A22(GQAPGQEP)6, A70K^, A71P, B25H, B29R, desB30 human insulin/(227A, 234A, 235K hIgG4-Fc(228-447)) … (other)
chain 1: B3 chain 1 with E24A, E32A, E40A, E48A, E56A, E64A
chain 2: FVNQHLCGSHLVEALYLVCGERGFHYTPR
chain 3: B6 chain 3
modifications: Cys229 (EU numbering) sulphur bound to an acetyl arm of the linker; A70K N(eps) acylated by the trivalent linker 4-[bis[2-[(2-acetyl)amino]ethyl]amino]-4-oxo-butanoyl
notes: also called Ex 5.9
B9: (A1(N(alpha)acetyl), A14E, A21G, A22(GQAP)19, A98K^, A99P, B1(N(alpha)acetyl), B25H, B29R, desB30 human insulin)/(227A, 234A, 235K, 297E, 315Q, 384Q, des447 … (other)
chain 1: B2 chain 1 with E32A, E44A, E56A, E68A, E80A, E92A
chain 2: FVNQHLCGSHLVEALYLVCGERGFHYTPR
chain 3: B1 chain 3
modifications: Cys229 (EU numbering) sulphur bound to an acetyl arm of the linker; B1 N(alpha)-acetyl; A1 N(alpha)-acetyl; A98K N(eps) acylated by the trivalent linker 4-[bis[2-[(2-acetyl)amino]ethyl]amino]-4-oxo-butanoyl
notes: Chemical insulin-Fc conjugate; also called Ex 5.27
B10: (A14E, A21G, A22(GQEP)19, 98K^, A99P, B25H, B29R, desB30 human insulin)/(226A, 227G, 228P, 234A, 235K, des447 hIgG4-Fc(228-447)) … (other)
chain 1: GIVEQCCTSICSLEQLENYCGGQEPGQEPGQEPGQEPGQEPGQEPGQEPGQEPGQEPGQEPGQEPGQEPGQEPGQEPGQEPGQEPGQEPGQEPGQEPKP
chain 2: FVNQHLCGSHLVEALYLVCGERGFHYTPR
chain 3: AGPCPAPEAKGGPSVFLFPPKPKDTLMISRTPEVTCVVVDVSQEDPEVQFNWYVDGVEVHNAKTKPREEQFNSTYRVVSVLTVLHQDWLNGKEYKCKVSNKGLPSSIEKTISKAKGQPREPQVYTLPPSQEEMTKNQVSLTCLVKGFYPSDIAVEWESNGQPENNYKTTPPVLDSDGSFFLYSRLTVDKSRWQEGNVFSCSVMHEALHNHYTQKSLSLSLG
modifications: Cys229 (EU numbering) sulphur bound to an acetyl arm of the linker; A98K N(eps) acylated by the trivalent linker 3,5-bis[(2-acetyl)amino]benzoyl
B11: A14E, A21G, A22(GQEP)3, A34G, A35Q, A36E, A37K^, A38P, B25H, B29R, desB30 human insulin/(227A, 234A, 235K hIgG4-Fc(228-447)) … (other)
chain 1: GIVEQCCTSICSLEQLENYCGGQEPGQEPGQEPGQEKP
chain 2: FVNQHLCGSHLVEALYLVCGERGFHYTPR
chain 3: B6 chain 3
modifications: Cys229 (EU numbering) sulphur bound to an acetyl arm of the linker; A37K N(eps) acylated by the trivalent linker 4-[bis[2-[(2-acetyl)amino]ethyl]amino]-4-oxo-butanoyl
notes: also called Ex 5.10
B12: A14E, A21G, A22(GQEP)19, A98K^, A99P, B3Q, B25H, B29R, desB30 human insulin/(227A, 234A, 235K hIgG4-Fc(228-447)) … (other)
chain 1: B10 chain 1
chain 2: FVQQHLCGSHLVEALYLVCGERGFHYTPR
chain 3: B6 chain 3
modifications: Cys229 (EU numbering) sulphur bound to an acetyl arm of the linker; A98K N(eps) acylated by the trivalent linker 4-[bis[2-[(2-acetyl)amino]ethyl]amino]-4-oxo-butanoyl
notes: also called Ex 5.6

target: insulin receptor of isolated rat adipocytes (rat, UniProt P15127 27-1383); test: cell-based or functional assay
Sequence (P15127 27-1383): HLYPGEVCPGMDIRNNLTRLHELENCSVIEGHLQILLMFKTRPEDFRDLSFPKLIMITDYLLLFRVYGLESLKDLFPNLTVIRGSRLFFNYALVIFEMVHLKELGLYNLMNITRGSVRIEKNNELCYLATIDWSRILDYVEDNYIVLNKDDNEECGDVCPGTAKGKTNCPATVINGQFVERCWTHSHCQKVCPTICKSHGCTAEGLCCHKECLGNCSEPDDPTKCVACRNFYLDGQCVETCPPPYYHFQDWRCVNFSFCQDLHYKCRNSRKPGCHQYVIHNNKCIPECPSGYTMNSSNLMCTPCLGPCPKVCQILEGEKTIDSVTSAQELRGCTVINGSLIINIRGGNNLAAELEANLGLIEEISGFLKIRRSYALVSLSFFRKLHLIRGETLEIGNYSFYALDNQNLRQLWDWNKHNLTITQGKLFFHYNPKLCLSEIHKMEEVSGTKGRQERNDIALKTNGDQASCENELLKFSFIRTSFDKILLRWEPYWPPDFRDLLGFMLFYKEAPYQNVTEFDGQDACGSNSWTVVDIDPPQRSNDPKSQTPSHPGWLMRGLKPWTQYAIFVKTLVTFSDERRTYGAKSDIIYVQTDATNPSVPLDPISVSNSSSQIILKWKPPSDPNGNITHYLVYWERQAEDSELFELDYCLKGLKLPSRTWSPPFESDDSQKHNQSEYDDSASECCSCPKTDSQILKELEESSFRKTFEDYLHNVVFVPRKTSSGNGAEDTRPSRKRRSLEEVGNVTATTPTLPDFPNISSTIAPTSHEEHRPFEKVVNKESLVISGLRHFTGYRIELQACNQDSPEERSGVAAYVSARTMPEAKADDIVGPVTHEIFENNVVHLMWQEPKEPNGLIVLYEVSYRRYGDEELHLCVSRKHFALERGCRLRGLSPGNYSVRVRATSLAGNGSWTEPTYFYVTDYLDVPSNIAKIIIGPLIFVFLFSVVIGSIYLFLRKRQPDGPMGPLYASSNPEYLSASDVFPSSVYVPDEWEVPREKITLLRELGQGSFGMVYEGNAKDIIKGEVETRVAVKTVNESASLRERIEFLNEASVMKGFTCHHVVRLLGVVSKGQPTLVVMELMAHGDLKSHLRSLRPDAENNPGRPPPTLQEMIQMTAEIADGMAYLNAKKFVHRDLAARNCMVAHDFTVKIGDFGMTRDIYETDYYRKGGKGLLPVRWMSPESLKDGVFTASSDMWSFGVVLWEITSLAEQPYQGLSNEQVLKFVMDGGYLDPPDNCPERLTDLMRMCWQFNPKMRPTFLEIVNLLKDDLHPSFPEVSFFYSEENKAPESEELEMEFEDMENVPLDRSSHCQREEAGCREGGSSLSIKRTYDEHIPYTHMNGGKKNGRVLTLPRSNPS

Row | Lipogenesis in rat adipocytes [Potency (%)] Mean Value | Binder
1 | 2.64 % of human insulin | B1
2 | 3.07 % of human insulin | B2
3 | 4.39 % of human insulin | B3
4 | 2.08 % of human insulin | B4
5 | 3.02 % of human insulin | B5
6 | 0.95 % of human insulin | B6
7 | 2.21 % of human insulin | B7
8 | 3.02 % of human insulin | B8

target: insulin receptor A (UniProt P06213-2 28-1370, limits assumed); test: insulin receptor binding assay as in Vienberg et al. 2011; relative to human insulin on insulin receptor A (100%)
Sequence (P06213 other isoform, or with tags, fused parts or gaps limits assumed): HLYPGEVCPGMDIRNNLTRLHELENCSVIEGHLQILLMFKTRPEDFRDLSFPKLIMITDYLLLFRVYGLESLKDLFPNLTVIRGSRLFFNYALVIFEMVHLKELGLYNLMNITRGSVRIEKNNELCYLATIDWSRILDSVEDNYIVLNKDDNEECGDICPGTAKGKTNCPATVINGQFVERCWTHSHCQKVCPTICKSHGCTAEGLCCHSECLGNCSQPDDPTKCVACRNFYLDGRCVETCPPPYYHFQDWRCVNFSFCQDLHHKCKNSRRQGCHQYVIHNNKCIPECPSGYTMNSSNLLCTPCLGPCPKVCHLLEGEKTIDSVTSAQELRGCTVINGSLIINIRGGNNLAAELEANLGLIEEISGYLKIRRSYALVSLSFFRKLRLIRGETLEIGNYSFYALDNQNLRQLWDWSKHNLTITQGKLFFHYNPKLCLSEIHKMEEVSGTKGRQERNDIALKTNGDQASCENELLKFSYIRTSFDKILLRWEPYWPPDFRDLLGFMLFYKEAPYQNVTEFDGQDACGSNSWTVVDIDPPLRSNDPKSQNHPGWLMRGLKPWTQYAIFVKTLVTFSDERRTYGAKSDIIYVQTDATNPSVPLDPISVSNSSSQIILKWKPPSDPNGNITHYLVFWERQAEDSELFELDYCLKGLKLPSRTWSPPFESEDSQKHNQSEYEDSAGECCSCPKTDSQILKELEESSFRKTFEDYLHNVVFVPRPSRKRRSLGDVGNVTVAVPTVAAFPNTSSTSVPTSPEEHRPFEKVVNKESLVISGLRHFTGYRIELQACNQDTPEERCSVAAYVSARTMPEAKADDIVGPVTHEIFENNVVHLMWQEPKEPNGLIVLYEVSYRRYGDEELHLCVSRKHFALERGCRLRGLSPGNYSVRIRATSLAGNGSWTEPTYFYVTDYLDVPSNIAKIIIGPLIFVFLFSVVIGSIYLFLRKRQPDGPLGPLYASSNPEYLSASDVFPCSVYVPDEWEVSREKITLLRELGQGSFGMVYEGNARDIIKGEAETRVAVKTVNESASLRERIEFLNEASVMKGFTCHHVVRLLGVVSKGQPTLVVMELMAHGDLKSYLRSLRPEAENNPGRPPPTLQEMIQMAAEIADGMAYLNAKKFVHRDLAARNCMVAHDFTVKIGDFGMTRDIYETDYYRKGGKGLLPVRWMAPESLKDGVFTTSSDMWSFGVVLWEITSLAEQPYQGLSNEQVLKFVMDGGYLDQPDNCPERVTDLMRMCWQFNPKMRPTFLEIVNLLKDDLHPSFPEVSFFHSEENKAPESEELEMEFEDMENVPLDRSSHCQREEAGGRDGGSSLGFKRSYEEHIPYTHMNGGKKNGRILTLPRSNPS

Row | Insulin receptor affinity [IC50 relative to HI (%)] [%] | Binder
9 | 1.07 | B9
10 | 3.06 | B1
11 | 5.55 | B2
12 | 3.98 | B3
13 | 4.49 | B4
14 | 4 | B5
15 | 3.85 | B10
16 | 2.1 | B6
17 | 3.34 | B7
18 | 2.47 | B11
19 | 5.07 | B12
20 | 2.96 | B8
